# Laboratory results taken from IntAct's records for PubMed 17496150.
# B1: "Peptide-N(4)-(N-acetyl-beta-glucosaminyl)asparagine amidase" (Mus musculus), Q9JI78 (parent)
# chain: MASATLGSSSSSASPAVAELCQNTPETFLEASKLLLTYADNILRNPSDEKYRSIRIGNTAFSTRLLPVRGAVECLFEMGFEEGETHLIFPKKASVEQLQKIRDLIAIERSSRLDGSSKKVQFSQHPAAAKLPLEQSEDPAGLIRHSGNQTGQLPSLPSAPMVVGDSTILKVLQSNIQHVQLYENPVLQEKALTCIPVSELKRKAQEKLFRARKLDKGTNVSDEDFLLLELLHWFKEEFFRWVNNIVCSKCGGETRSRDEALLPNDDELKWGAKNVENHYCDACQLSNRFPRYNNPEKLLETRCGRCGEWANCFTLCCRALGFEARYVWDYTDHVWTEVYSPSQQRWLHCDACEDVCDKPLLYEIGWGKKLSYIIAFSKDEVVDVTWRYSCKHDEVMSRRTKVKEELLRETINGLNKQRQLSLSESRRKELLQRIIVELVEFISPKTPRPGELGGRVSGSLAWRVARGETGLERKEILFIPSENEKISKQFHLRYDIVRDRYIRVSDNNINISGWENGVWKMESIFRKVEKDWNMVYLARKEGSSFAYISWKFECGSAGLKVDTVSIRTSSQSFESGSVRWKLRSETAQVNLLGDKNLRSYNDFSGATEVTLEAELSRGDGDVAWQHTQLFRQSLNDSGENGLEIIITFNDL
# Variants of: B1
# Conditions: with tera_mouse Vcp
row,Variant,effect of a mutation on the interaction
1,N58D,disrupting interaction strength

# Variants of: B1
# Conditions: with tera_mouse Vcp
# Remark: another data set of the same source
row,Variant,effect of a mutation on the interaction
1,R55E,disrupting interaction strength
